For four molecules, MFI of anti-murine β2M staining (K11-pulsed BARC3 cells), MFI of anti-H2-D^b staining of peptide-loaded RMA-S cells and dissociation half-life (t1/2), first experiment results are on record in paper PMC3494747.

In test [1] the target is DLA-88*50801 heavy chain with a FLAG epitope tag at the carboxyl terminus, on BARC3 cells (canine). The test can be described thus: flow cytometry on cells.
The target of test [2] is H2-D^b class I heavy chain, endogenous on RMA-S cells (mouse (endogenous in RMA-S)). In words: peptide-induced MHC class I surface stabilization assay.
Test [3] concerns the target DLA-88*50801 heavy chain with a FLAG epitope tag at the carboxyl terminus, on BARC3 cells (canine). In words: dissociation of peptide-MHC complexes from the cell surface under brefeldin A.

Sequence of H2-D^b class I heavy chain, endogenous on RMA-S cells (mouse (endogenous in RMA-S)) (P01899 25-362): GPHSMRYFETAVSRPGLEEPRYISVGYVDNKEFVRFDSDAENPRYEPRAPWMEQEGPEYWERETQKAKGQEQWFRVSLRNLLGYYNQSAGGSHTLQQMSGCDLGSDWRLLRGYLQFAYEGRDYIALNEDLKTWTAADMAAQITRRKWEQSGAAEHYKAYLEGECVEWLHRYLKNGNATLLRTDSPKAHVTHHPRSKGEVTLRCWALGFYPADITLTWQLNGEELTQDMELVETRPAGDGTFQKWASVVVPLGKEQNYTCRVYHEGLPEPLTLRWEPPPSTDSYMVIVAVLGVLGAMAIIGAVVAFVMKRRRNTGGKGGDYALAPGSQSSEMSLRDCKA

The molecule “murine β2-microglobulin (from UniProt P01887 21-119) (natural protein)” had an MFI of anti-murine β2M staining (K11-pulsed BARC3 cells) in test [1] of 281 MFI.

In turn, “NP396 peptide (LCMV-derived immunodominant peptide)” yielded an MFI of anti-H2-D^b staining of peptide-loaded RMA-S cells in test [2] of 217 MFI.

Consider RFLDKDGFIDK [K11 peptide], for which the dissociation half-life (t1/2), first experiment in test [3] turned out to be 6 h.

The molecule KLFSGELTK [K9 peptide] displayed a dissociation half-life (t1/2), first experiment in test [3] of 1.9 h.
